According to patent US8507655:

What was measured:
[1] = target: PA83 protective antigen (Bacillus anthracis, UniProt P13423); assay: SPR
Target sequence in this assay (P13423 30-764): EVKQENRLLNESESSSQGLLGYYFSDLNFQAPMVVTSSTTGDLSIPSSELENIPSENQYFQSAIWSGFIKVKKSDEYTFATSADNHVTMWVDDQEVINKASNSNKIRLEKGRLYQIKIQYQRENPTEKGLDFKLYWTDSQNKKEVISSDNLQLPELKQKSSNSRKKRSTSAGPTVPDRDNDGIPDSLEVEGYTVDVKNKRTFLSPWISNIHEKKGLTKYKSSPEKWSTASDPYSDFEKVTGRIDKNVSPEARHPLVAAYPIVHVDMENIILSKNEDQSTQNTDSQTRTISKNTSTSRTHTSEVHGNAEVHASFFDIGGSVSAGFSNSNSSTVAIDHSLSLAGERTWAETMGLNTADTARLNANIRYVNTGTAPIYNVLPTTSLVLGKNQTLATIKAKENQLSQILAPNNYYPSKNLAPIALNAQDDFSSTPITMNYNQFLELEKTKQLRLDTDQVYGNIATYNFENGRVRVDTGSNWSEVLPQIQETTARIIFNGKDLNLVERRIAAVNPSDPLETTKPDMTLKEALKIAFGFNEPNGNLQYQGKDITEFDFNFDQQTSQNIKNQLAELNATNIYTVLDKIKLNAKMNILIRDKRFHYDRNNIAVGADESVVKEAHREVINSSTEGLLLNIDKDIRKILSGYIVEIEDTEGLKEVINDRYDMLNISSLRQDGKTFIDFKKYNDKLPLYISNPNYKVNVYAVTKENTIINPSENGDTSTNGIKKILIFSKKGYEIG

[2] = target: PA83 protective antigen (Bacillus anthracis, UniProt P13423); assay: SPR; remark: listed apart in the source
Target sequence in this assay (P13423 30-764): as above

Binder	Kd [1]	Kd [2]
J24-15 (antibody, V domains shown) VH: QVQLQESGPGLLKPSETLSLTCAVSGDSISGGYYWSWIRQSPGKGLEWIGHIYGSTADTRYNPSLKSRVTISKDTSKNQLSLQLRSVTAADTAVYYCARSGYNFWSGEYYGLDLWGQGAVVTVSS VL: AIQLTQSPSSLSAYVGDKVTITCHASQGINSWLAWYQQKPGKAPKLLIYKARSLQSGVPSRFSGSGSGTDYTLTISSLQSEDFASYYCLQYDSAPLAFGPGTKLDIK	0.88 nM	–
35PA83 Fab (parent) (antibody, V domains shown) VH: GPGLLKPSETLSLTCAVSGDSISGGYYWSWIRQSPGKGLEWIGHIYGSTADTRYNPSLKSRVTISKDTSKNQLSLQLRSVTAADTAVYYCARSGYNFWSGEYYGLDSWGQGAVVTVSS VL: TQSPSSLSAYVGDKVTITCHASQGINSWLAWYQQKPGKAPKLLIYKASSLQSGVPSRFSGSGSGTDYTLTISSLQSEDFASYYCLQYDSAPLAFGPGTKLDIK	3.4 nM	–
5.15 (antibody, V domains shown) VH: GPGLLKPSETLSLTCAVSGDSISGGYYWSWIRQSPGKGLEWIGHIYGSTADTRYNPSLKSRVTISKDTSKNQLSLQLRSVTAADTAVYYCARSGYNFWSGEYYGLDSWGQGAVVTVAS VL: TQSPSSLSAYVGDKVTITCHASQGINSWLAWYQQKPGKAPKLLIYKASSLQSGVPSRFSGSGSGTDYTLTISSLQSEDFASYYCLQYDSAPLAFGPGTKLDIK	–	3.5 nM
J24-7 (antibody, V domains shown) VH: QVQLQESGPGLLKPSETLSLTCAVSGDSISGGYYWSWIRQSPGKGLEWIGHIYGSTADTRYNPSLKSRVTISKDTSKNQLSLQLRSVTAADTAVYYCARSGYNFWSGEYYGLDSWGQGAVVTVSS VL: AIQLTQSPSSLSAYVGDKVTITCRASQGINSWLAWYQQKPGKAPKLLIYKASSLQEGVPSRFSGSGSGTDYTLTISSLQSEDFASYYCLQYDSAPLAFGPGTKLDIK	0.78 nM	–
5.20 (antibody, V domains shown) VH: GPGLLKPSETLSLTCAVSGDSISGGYYWSWIRQSPGKGLEWIGHIYGSTADTRYNPSLKSRVTISKDTRKNQLSLQLRSVTAADTAVYYCARSGYNFWSGEYYGLDSWGQGAVVTVSS VL: TQSPSSLSAYVGDKVTITCHASQGINSWLAWYQQKPGKAPKLLIYKASSLQSGVPSRFSGSGSGTDYTLTISSLQSEDFASYYCLQYDSAPLAFGPGTKLDIK	–	12.2 nM
v2 (antibody, V domains shown) VH: QVQLQESGPGLLKPSETLSLTCAVSGDSISSGYYWSWIRQSPGKGLEWIGHIYGSTADTKYNPSLRSRVTISKDTSKNQLSLQLRSVTAADTAVYYCARSGYNFWSGEYYGLDSWGQGAVVTVSS VL: AIQLTQSPSSLSAYVGDKVTITCHASQGINSWLAWYQQKPGKAPKLLIYKASSLQSGVPSRFSGSGSGTDYTLTISSLQSEDFASYYCLQYDSAPLAFGPGTKLDIK	0.66 nM	–
